T1: Periostin (UniProt Q15063 496-836)
T1 sequence: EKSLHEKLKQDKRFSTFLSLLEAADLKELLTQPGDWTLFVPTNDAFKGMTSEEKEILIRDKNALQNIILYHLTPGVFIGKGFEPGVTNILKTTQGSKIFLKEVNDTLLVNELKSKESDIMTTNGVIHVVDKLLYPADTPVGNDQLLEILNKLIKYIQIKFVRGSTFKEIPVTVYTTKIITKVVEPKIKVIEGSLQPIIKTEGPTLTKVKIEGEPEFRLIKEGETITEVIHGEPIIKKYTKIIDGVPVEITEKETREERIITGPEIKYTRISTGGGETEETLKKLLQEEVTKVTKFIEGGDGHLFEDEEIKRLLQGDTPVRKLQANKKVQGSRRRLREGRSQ

B1: PL5 (ssDNA)
DNA: CACCTAATACGACTCACTATAGCGGATCCGATTCGAACCAGAATATTAGTCGCAAAATCTTGATGCAGTCACTGGCTCGAACAAGCTTGC
B2: PL2 (ssDNA)
DNA: CACCTAATACGACTCACTATAGCGGATCCGAAAGTCAACGCCAGATAAAAACAATTTGCCTTCCTCCGCCCCTGGCTCGAACAAGCTTGC
B3: PL5trunc (ssDNA)
DNA: TAATACGACTCACTATAGCGGATCCGATTCGAACCAGAATATTAGTCGCAAAATCTTGATG

Molecular target: T1, Periostin
Experiment: magnetic bead fluorescence assay; 5 mM Mg2+; 20 mM Tris-HCl pH 8.0, 100 mM NaCl, 5 mM KCl, 5 mM MgCl2, 0.05% Tween 20, 25 °C, 1 h; His-tagged periostin on His-tag magnetic beads
Conditions: protein: recombinant; tags: 6xHis (pET-28a); label: 5' Cy3

First: TCAACGCCAGATAAAAACAATTTGCCTTCCTCCGCCCCTGGCTCGAA (ssDNA) [PL2trunc]
Second: B1
The Kd of the first is 5-fold lower: 10.1 nM for the first, 50.1 nM for the second.

B2 and B3 are within 1.5-fold of each other in Kd: 45.7 nM for the first, 37 nM for the second.
